Data: patent US20160228506A1, “Compositions and Formulations for Prevention and Reduction of Tumorigenesis, Cancer Cell Proliferation and Invasion, and Methods of Production and Use Thereof in Cancer Treatment” (PRONUTRIA, INC., priority 2013, published 2016)
Read-outs that look alike come from different tables or passages of the source.

How the values were obtained:
pH solubility = format: physicochemical; conditions: for pH Range where Protein is >80% detected as Soluble and A650 <1 OD: Low: lower pH; for pH Range where Protein is >80% detected as Soluble and A650 <1 OD: High: upper pH
Experimental: pH Solubility. […] Protein was either lyophilized and then resuspended in buffer cocktail mixtures, or concentrated and then spiked into buffer cocktail mixtures at a final protein concentration of 5 to 30 mg/ml. As a control, protein was also dissolved in a solution of 8 M urea. Protein solutions were shaken for 10 min at room temperature. Turbidity of proteins was determined by measuring the absorbance of protein solutions at 650 nm. The protein solution was then centrifuged for 10 min at 1100×g to pellet undissolved or precipitated protein. The soluble protein fraction (supernatant) was sampled and protein concentration was measured by one or more of the following methods: Coomassie Plus Protein Assay (Pierce), Chip electrophoresis, gel electrophoresis, and/or absorbance at 280 nm. The pH range over which select proteins remained greater than 80% soluble as determined by Bradford and the A650 value are listed in Table E31C.

[1] = SGF digest of 168 nutritive polypeptide library, intact protein by LC-MS/MS; format: in vitro ADME; conditions: for % Intact Protein at 10 min: 168 nutritive polypeptide library SGF digest, LC-MS/MS spectral counts; for % Remaining at 10 min: 168 nutritive polypeptide library, LC-MS/MS
How it was run: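 Spectral-count ratios (10 min vs 0 min, peak gel fraction plus neighbours) give the percent of each protein left intact after SGF digestion of a pooled, IMAC-purified 168-member recombinant library. Samples were gel-fractionated, trypsinised in-gel and run on Orbitrap nanoLC-MS/MS, requiring two unique peptides at 1% FDR.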

[2] = Thermostability, temperature of aggregation (ProteoStat Thermal Shift); format: physicochemical; parameters: key to Tagg: temperature in °C
How it was run: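 Protein at about 10 mg/ml in citric acid/dibasic sodium phosphate buffers spanning pH 2.8–7.1, with 1× ProteoStat TS detection reagent. Samples heated from 25 °C to 95 °C at 0.5 °C per 30 sec in a real-time PCR thermocycler. Aggregation followed by fluorescence through a Texas Red filter.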

[3] = Intact half-life during simulated gastric fluid (SGF) digestion; conditions: for SGF Half-life (t½): SGF pH 1.5, pepsin:polypeptide 1:20 w/w, 37° C., intact protein; for Half-life: purified proteins, chip electrophoresis
Pancreatin = format: in vitro ADME, Porcine
Experimental: Control samples were protease-free.
Analyses were performed using an Agilent 1100 series system.

[4] = simulated gi fluid
[5] = rat, in vivo
Experimental: A rat pharmacokinetic study with oral administration of native and modified forms of SEQID-00363 was performed as described herein. The indigestible marker Cobalt-EDTA was formulated at 50 mg/L in the dosed protein solutions to monitor differences in intestinal transit rate between treatment groups and individual rats. Following the final blood collection (at t=4 h) rats were euthanized and the terminal ileum (20 cm of small intestine prior to the cecum) and its contents (the digesta) were collected into a pre-weighed tube. The ileum was flushed with saline and pooled with the digesta. The pH of the digesta was adjusted to ˜3.0 with HCl in order to inactivate all enzymes. The ileum samples were placed into separate pre-weighed 15 mL conical tubes. All samples were flash frozen in liquid nitrogen, and stored at −80° C. until further analysis. Individual ileum and ileum content weights were calculated and recorded for each sample.
A sample of the digesta, which exists as a heterogenous solution containing insoluble particles, was used in the Coomassie Plus Protein Assay, as described herein, to determine protein concentration.

[6] = rat, in vivo, po
Experimental: The boavailability o native and modified forms (ie. deglycosylated and hydrolyzed) of SEQID-00363 was evaluated using the methods described in herein. Briefly, native and modified forms of SEQID-00363 were orally administered to intrajugular-cannulated rats and concentration of free amino acids in plasma samples collected over a 4 h period was determined by HPLC amino acid analysis.

α-amylase = assay: Amylase activity assay on starch plates (halo); parameters: species or system Bacillus subtilis
Experimental: SEQID-00407 is an α-amylase in Bacillus subtilis that has the activity of breaking down polysaccharides, such as starch, into monosaccharides or disaccharides. […] If there is enzymatic activity, the secreted enzyme will breakdown the starch and upon staining by iodine, there will be a halo surrounding the Bacillus subtilis colonies. 1% starch plates were made by combining 25 g Luria Broth-Miller, 10 g starch, 15 g bacteriological agar, and 1 L water. 10 mM IPTG was added to the starch plates after the agar has solidified. Single colonies of Bacillus subtilis strains expressing the mutant polypeptides were inoculated in 5 ml LB at 37° C. for 4 hours and 50 μl of the liquid culture were spotted at the center for the starch plates. After 20 hours of growth and induced secretion, 10% iodine was added to the starch plates to stain for starch. When the wild-type enzyme is secreted, it creates a large halo around the cells. […] Table E37A quantifies the area of the halos relative to the area of the cells. […]
SEQID-00407 is an α-amylase in Bacillus subtilis that has the activity of breaking down polysaccharides, such as starch, into monosaccharides or disaccharides. […] Table E38E quantifies the area of the halos relative to the area of the cells.

B1: SEQID-00485: nutritive polypeptide naturally produced in Chickpea, recombinantly expressed in E. coli (protein, listed as Cicer arietinum)
chain: MTKTGYINAAFRSSRNNEAYLFINDKYVLLDYAPGTSNDKVLYGPSFVRDGYKSLAKTIFGTYGIDCSFDTEYNEAFIFYENFCARIDYAPHSDKDKIISGPKKIADMFPFFKGTVFENGIDAAFRSTKGKEVYLFKGDKYARIDYLTNRLVQNIKSISDGFPCLRGTIFEAGMDSAFASHKTNEAYLFKGEYYARINFTPGSTNDIMGGVKKTLDYWPSLRGIIPLE
Which “pH Range where Protein is >80% detected as Soluble and A650 <1 OD: Low” value (pH solubility) does the source give for B1 here?
Its value is 4.6.

And the “pH Range where Protein is >80% detected as Soluble and A650 <1 OD: Other” value (pH solubility; other pH)?
Its value is 2.8.

And the “pH Range where Protein is >80% detected as Soluble and A650 <1 OD: High” value (pH solubility)?
The value was 7.1.

What about the “% Intact Protein at 10 min” value [1] of the same molecule?
The value was 0%.

What about the “% Remaining at 10 min” value [1] of the same molecule?
Its value is 0%.

And the Tagg ([2]; pH 5.0)?
The Tagg was 31.5.

And the Tagg ([2]; pH 5.6)?
The Tagg was 34.5.

And the Tagg ([2]; pH 6.0)?
The Tagg was 36.

And the Tagg ([2]; pH 6.5)?
Its Tagg is 36.5.

What about the Tagg ([2]; pH 7.1) of the same molecule?
Its Tagg is 36.

And the “SGF Half-life (t½)” value [3]?
The value was 30 s.

What about the “Half-life” value [3] of the same molecule?
Its value is 30 s.

What about the “Free Leu (μM) at 120 min time point of Pancreatin digest” value (Pancreatin) of the same molecule?
The value was 764.9 µM.

B2: Deglycosylated SEQID-00363: SEQID-00363 with mannose glycans reduced enzymatically by alpha mannosidase (protein)
chain: ATLDSWLSNEATVARTAILNNIGADGAWVSGADSGIVVASPSTDNPDYFYTWTRDSGLVLKTLVDLFRNGDTSLLSTIENYISAQAIVQGISNPSGDLSSGAGLGEPKFNVDETAYTGSWGRPQRDGPALRATAMIGFGQWLLDNGYTSTATDIVWPLVRNDLSYVAQYWNQTGYDLWEEVNGSSFFTIAVQHRALVEGSAFATAVGSSCSWCDSQAPEILCYLQSFWTGSFILANFDSSRSGKDANTLLGSIHTFDPEAACDDSTFQPCSPRALANHKEVVDSFRSIYTLNDGLSDSEAVAVGRYPEDTYYNGNPWFLCTLAAAEQLYDALYQWDKQGSLEVTDVSLDFFKALYSDAATGTYSSSSSTYSSIVDAVKTFADGFVSIVETHAASNGSMSEQYDKSDGEQLSARDLTWSYAALLTANNRRNSVVPASWGETSASSVPGTCAATSAIGTYSSVTVTSWPSIVATGGTTTTATPTGSGSVTSTSKTTATASKTSTSTSSTSCTTPTAVAVTFDLTATTTYGENIYLVGSISQLGDWETSDGIALSADKYTSSDPLWYVTVTLPAGESFEYKFIRIESDDSVEWESDPNREYTVPQACGTSTATVTDTWR
modifications: deglycosylated; Aspergillus niger
With B2 as the molecule, how does the “SGF Half-life (t½)” value [4] read?
The value was 258 s.

What about the “total protein mass in digesta samples” value [5] of the same molecule?
Its value is 7.7 mg.

What about the “bioavailability of Leucine and EAAs versus native SEQID-00363” value [6] of the same molecule?
Its value is “did not increase the bioavailability”.

And the “bioavailability of Serine and Threonine versus native SEQID-00363” value [6]?
Its value is “did increase the bioavailability”.

What about the “Free Leu (μM) at 120 min time point of Pancreatin digest” value (Pancreatin) of the same molecule?
Its value is 799.2 µM.

B3: SEQID-00690: engineered secreted variant of SEQID-00407 enriched in essential amino acids which retains enzymatic activity (protein, listed as Bacillus subtilis)
chain: ETANKSNELTAPSIKSGTILHAWNWSFNTLKHNMKDIHDAGYTAIQTSPINQVKEGNQGDKSMSNWYWLYQPTSYQIGNRYLGTEQEFKEMCAAAEEYGIKVIVDAVINHTTSDLVGVLSNEVKSIPNWTHGNTQIKNWSDRWDVTQNSLLGLYDWNTQNTQVQSYLKRFLDRALNDGADGFRFDAAKHIELPDDGSYGSQFWPNITRVVMEFQYGEILQDSASRDAAYANYMDVTASNYGHSIRSALKNRNLGVSNIVMYILRVSADKLVTWVESHDTYANDDEESTWMSDDDIRLGWAVIASRSGSTPLFFSRPEGGGNGVRFPGKSQIGDRGSALFEDQAITAVNRFHNVMAGLPKRLSNPNGNNQIFMNQRGSHGVVLANAGSSSVSINTATKLPDGRYDNKAGAGSFQVNDGKLTGTINARSVAVLYPDDIAKAPHVFLENYKTGVTHSFNDQLTITMRADANTTKAVYQINNGPETAFKDGDQFTIGKGDPFGKTYTIMLKGTNSDGVTRTEKYSFVKRDPASAKTIGYQNPNHWSQVNAYIYKHDGSRVIELTGSWPGKPMTKNADGIYTLTLPADTDTTNAKVIFNNGSAQVPGQNQPGFDYVLNGLYNDSGLSGSLPH
modifications: source: /note="strain 168"
For B3, which Halo/Cell (α-amylase; area of halo relative to area of cells) is on record?
The Halo/Cell was 2.63.

What about the “Halo Area (in^2)” value (α-amylase; starch plate, iodine stain, 20 hours) of the same molecule?
The value was 1.234 in^2.

What about the “SGF Half-life (t½)” value [3] of the same molecule?
Its value is 264 s.

B4: SEQID-00605: nutritive polypeptide naturally produced in Mushroom, recombinantly expressed in E. coli (protein, listed as Agaricus bisporus)
chain: MLEFTLNDGNRIPAIAFGTGTALYNQDASAFVRLAIETGITHLDGAQMYENEETLGKGIKSSGKPRSELFITTKLHILKPGQTVRETLVESLGKIGVDYVDLFLIHDPTANRKEATLSEIWSQLEALKNEGLTKSIGVSNFKVEDLNEILPGAKIIPAVNQIEFHPYVLKAASPIIELCKAKGIIVASYGGQTPIVRATDGPLKDLLPKIRERLEQTRGSPVTEGQVLTKWLLQKNVIAISTSSKESRIKEFLSTVDVPDLTKQEIESIDNAGSTIHKRIYMKHIFNE
modifications: source: /note="var. bisporus"; source: /note="strain H97 / ATCC MYA-4626 / FGSC 10389"
notes: nutritive polypeptide naturally produced in Mushroom, recombinantly expressed in E. coli
What does the source list for B4?
pH Range where Protein is >80% detected as Soluble and A650 <1 OD: Low (pH solubility): 5.6; pH Range where Protein is >80% detected as Soluble and A650 <1 OD: High (pH solubility): 7.1; % Intact Protein at 10 min [1]: 0%; % Remaining at 10 min [1]: 0%; Tagg ([2]; pH 4.6): 40.5; Tagg ([2]; pH 5.0): 33.5; Tagg ([2]; pH 5.6): 37; Tagg ([2]; pH 6.0): 44.5; Tagg ([2]; pH 6.5): 38.5; Tagg ([2]; pH 7.1): 39; SGF Half-life (t½) [3]: 12 s; Half-life [3]: 12 s; Free Leu (μM) at 120 min time point of Pancreatin digest (Pancreatin): 937.1 µM
